Results reported in PMC7102968, “The complex formed between a synthetic RNA aptamer and the transcription repressor TetR is a structural and functional twin of the operator DNA–TetR regulator complex”.

How the values were obtained:
TetR(BD') [1] = molecular target: T1, TetR(BD') (UniProt P04483 1-187+P0ACT4:188-208, C68S;C88N;C121T;C144S;internal_change); experiment: ITC; n=0.96 (TetR dimer per aptamer); ITC: 20 mM potassium phosphate pH 7.4, 50 mM NaCl, 25 C; EMSA: 50 mM Tris-HCl pH 8.0, 10 mM MgCl2, 25 mM NaCl, 25 ug/ml yeast tRNA, room temperature; SEC buffer not given (preparative complex: 20 mM Tris-HCl pH 8.0, 150 mM NaCl, 5 mM MgCl2); conditions: protein: recombinant, chain copies: 2, label: 5'-32P in EMSA, none in ITC, crystal, hairpin, L-shaped, 43 nt, stems P1 and P2
TetR-Q38A [2] = molecular target: T2, TetR-Q38A (UniProt P04483 1-187+P0ACT4:188-208, Q38A;C68S;C88N;C121T;C144S;internal_change); experiment: ITC; n=1.10; ITC: 20 mM potassium phosphate pH 7.4, 50 mM NaCl, 25 C; EMSA: 50 mM Tris-HCl pH 8.0, 10 mM MgCl2, 25 mM NaCl, 25 ug/ml yeast tRNA, room temperature; SEC buffer not given (preparative complex: 20 mM Tris-HCl pH 8.0, 150 mM NaCl, 5 mM MgCl2); conditions: protein: recombinant, chain copies: 2, label: 5'-32P in EMSA, none in ITC, crystal, hairpin, L-shaped, 43 nt, stems P1 and P2
TetR-R28A [3] = molecular target: T3, TetR-R28A (UniProt P04483 1-187+P0ACT4:188-208, R28A;C68S;C88N;C121T;C144S;internal_change); experiment: EMSA; 10 mM Mg2+, up to 1000 nM TetR; ITC: 20 mM potassium phosphate pH 7.4, 50 mM NaCl, 25 C; EMSA: 50 mM Tris-HCl pH 8.0, 10 mM MgCl2, 25 mM NaCl, 25 ug/ml yeast tRNA, room temperature; SEC buffer not given (preparative complex: 20 mM Tris-HCl pH 8.0, 150 mM NaCl, 5 mM MgCl2); conditions: protein: recombinant, chain copies: 2, label: 5'-32P in EMSA, none in ITC, crystal, hairpin, L-shaped, 43 nt, stems P1 and P2
TetR-Q38A [4] = molecular target: T2, TetR-Q38A; experiment: EMSA; 10 mM Mg2+, 25 ug/ml yeast tRNA; exact Kd not determinable, weak binding detected; ITC: 20 mM potassium phosphate pH 7.4, 50 mM NaCl, 25 C; EMSA: 50 mM Tris-HCl pH 8.0, 10 mM MgCl2, 25 mM NaCl, 25 ug/ml yeast tRNA, room temperature; SEC buffer not given (preparative complex: 20 mM Tris-HCl pH 8.0, 150 mM NaCl, 5 mM MgCl2); conditions: protein: recombinant, chain copies: 2, label: 5'-32P in EMSA, none in ITC, crystal, hairpin, L-shaped, 43 nt, stems P1 and P2
TetR(BD') [5] = molecular target: T1, TetR(BD'); experiment: EMSA; 10 mM Mg2+, 25 ug/ml yeast tRNA; ITC: 20 mM potassium phosphate pH 7.4, 50 mM NaCl, 25 C; EMSA: 50 mM Tris-HCl pH 8.0, 10 mM MgCl2, 25 mM NaCl, 25 ug/ml yeast tRNA, room temperature; SEC buffer not given (preparative complex: 20 mM Tris-HCl pH 8.0, 150 mM NaCl, 5 mM MgCl2); conditions: protein: recombinant, chain copies: 2, label: 5'-32P in EMSA, none in ITC, crystal, hairpin, L-shaped, 43 nt, stems P1 and P2
TetR(BD') [6] = molecular target: T1, TetR(BD'); experiment: X-ray crystallography; 2.9 A; ITC: 20 mM potassium phosphate pH 7.4, 50 mM NaCl, 25 C; EMSA: 50 mM Tris-HCl pH 8.0, 10 mM MgCl2, 25 mM NaCl, 25 ug/ml yeast tRNA, room temperature; SEC buffer not given (preparative complex: 20 mM Tris-HCl pH 8.0, 150 mM NaCl, 5 mM MgCl2); conditions: protein: recombinant; chain copies: 2; hairpin, L-shaped, 39 nt, UUCG loop
TetR-R28A [7] = molecular target: T3, TetR-R28A; experiment: SEC; ITC: 20 mM potassium phosphate pH 7.4, 50 mM NaCl, 25 C; EMSA: 50 mM Tris-HCl pH 8.0, 10 mM MgCl2, 25 mM NaCl, 25 ug/ml yeast tRNA, room temperature; SEC buffer not given (preparative complex: 20 mM Tris-HCl pH 8.0, 150 mM NaCl, 5 mM MgCl2); conditions: protein: recombinant; chain copies: 2; blunt
TetR-Q38A [8] = molecular target: T2, TetR-Q38A; experiment: as above; conditions: protein: recombinant; chain copies: 2; blunt
TetR-Y42A = TetR-Y42A (UniProt P04483 1-187+P0ACT4:188-208, Y42A;C68S;C88N;C121T;C144S;internal_change); experiment: as above; conditions: protein: recombinant; chain copies: 2; blunt
TetR(BD') [9] = molecular target: T1, TetR(BD'); experiment: ITC; n=1.17; ITC: 20 mM potassium phosphate pH 7.4, 50 mM NaCl, 25 C; EMSA: 50 mM Tris-HCl pH 8.0, 10 mM MgCl2, 25 mM NaCl, 25 ug/ml yeast tRNA, room temperature; SEC buffer not given (preparative complex: 20 mM Tris-HCl pH 8.0, 150 mM NaCl, 5 mM MgCl2); conditions: protein: recombinant; chain copies: 2; blunt

## GGCCGGAGAAUGUUAUGGCGCGAAAGCGCAGAGAAAACCGGUC (structured_RNA) [TetR-binding aptamer K1]
TetR(BD') [1]
  Kd: 5.6 nM
TetR-Q38A [2]
  Kd: 26.2 nM
TetR-R28A [3]
  binding result: no binding
TetR-Q38A [4]
  Kd: > 500 nM
TetR(BD') [5]
  Kd: 80 nM

## GGCGGAGAAUGUUAUGGCCUUCGGGCAGAGAAAACCGUC (structured_RNA) [TetR-binding aptamer K2]
TetR(BD') [6]
  binding result: binds

B1: tetO operator 25 bp (dsDNA)
DNA 1: CGCATTCTATCATTGATAGGATGCG
DNA 2: CGCATCCTATCAATGATAGAATGCG
TetR-R28A [7]
  binding result: no binding
TetR-Q38A [8]
  binding result: binds
TetR-Y42A
  binding result: no binding
TetR(BD') [9]
  Kd: 51.1 nM
